From US20200308290A1 (AbbVie / Abbott, published 2020)
Residue numbers refer to the chain shown, from its start. Names and notes keep the numbering of the source. Read-outs that look alike come from different tables or passages of the source.

B1: NST-RN (antibody, IgG1, V domains shown)
VH: QVQLVQSGAEVKKPGSSVKVSCKASGYTFTSYRMHWVRQAPGQGLEWIGYINPSTGYTEYNQKFKDKATITADESTNTAYMELSSLRSEDTAVYYCARGGGVFDYWGQGTLVTVSS
VL: DIQMTQSPSTLSASVGDRVTITCSASSRISYMHWYQQKPGKAPKLLIYTTSNLASGVPARFSGSGSGTEFTLTISSLQPDDFATYYCHQRSTYPLTFGQGTKVEVK
B2: RKT-SE (antibody, IgG1, name in Kabat numbering, V domains shown)
VH: B1 VH with N52R, S54K
VL: B1 VL with R28S, N52E
B3: RNR-SE (antibody, IgG1, name in Kabat numbering, V domains shown)
VH: B1 VH with N52R, S54N, T55R
VL: B1 VL with R28S, N52E
notes: IgG1/kappa
B4: S31A (antibody, IgG1, V domains shown)
VH: B1 VH
VL: B1 VL with R28S, S30A
B5: SRK-SE (antibody, IgG1, name in Kabat numbering, V domains shown)
VH: B1 VH with N52S, S54R, T55K
VL: B1 VL with R28S, N52E
notes: IgG1/kappa; also called S52R53K54 VH with S29E53 VL
B6: T50A (antibody, IgG1, V domains shown)
VH: B1 VH
VL: B1 VL with R28S, T49A
B7: VRR-SE (antibody, IgG1, name in Kabat numbering, V domains shown)
VH: B1 VH with N52V, S54R, T55R
VL: B1 VL with R28S, N52E
notes: IgG1/kappa; also called VRRE-SE
B8: Y32A (antibody, IgG1, name in Kabat numbering, V domains shown)
VH: B1 VH
VL: B1 VL with R28S, Y31A
B9: Variant C15 (antibody, name in Kabat numbering, V domains shown)
VH: B1 VH with N52V, S54R, T55R
VL: B1 VL with R28S, N52E
notes: Isotype as printed: G1 fa; also called VRR-SE
B10: Variant C16 (antibody, name in Kabat numbering, V domains shown)
VH: B1 VH with N52R, S54N, T55R
VL: B1 VL with R28S, N52E
notes: Isotype as printed: G1 fa; also called RNR-SE
B11: Variant C19 (antibody, name in Kabat numbering, V domains shown)
VH: B1 VH with N52S, S54R, T55K
VL: B1 VL with R28S, N52E
notes: Isotype as printed: G1 fa; also called SRK-SE
B12: Variant C27 (antibody, name in Kabat numbering, V domains shown)
VH: B1 VH with I48M, T55S
VL: B1 VL with R28S
notes: Isotype as printed: G2M3.QL
B13: Variant C29 (antibody, name in Kabat numbering, V domains shown)
VH: B1 VH with I48M, T55S
VL: B1 VL with R28S, N52E
notes: Isotype as printed: G2M3.QL
B14: daclizumab variant S77 (antibody, IgG1, name in Kabat numbering, V domains shown)
VH: B1 VH with I48M
VL: B1 VL with R28S
notes: IgG1; Kabat positions; also called I48M; DAC I48M
B15: Variant C26 (antibody, name in Kabat numbering, V domains shown)
VH: B1 VH with N52K, T55R, E74K
VL: B1 VL with R28S, N52E
notes: Isotype as printed: G1 fa; E to K read as E73K
B16: Variant C39 (antibody, V domains shown)
VH: B1 VH with I48M, N52S, S54R, T55K
VL: B1 VL with R28K, N52D
B17: Variant C44 (antibody, V domains shown)
VH: B1 VH with I48M, N52S, S54K, T55K
VL: B1 VL with R28K, N52D
B18: Variant C45 (antibody, V domains shown)
VH: B1 VH with I48M, N52S, S54K, T55S
VL: B1 VL with R28K, N52D
B19: Variant C46 (antibody, V domains shown)
VH: B1 VH with I48M, N52K, S54K, T55S
VL: B1 VL with R28K, N52D
B20: Variant C47 (antibody, V domains shown)
VH: B1 VH with I48M, N52R, S54K, T55K
VL: B1 VL with R28K, N52D
B21: Variant C48 (antibody, V domains shown)
VH: B1 VH with I48M, N52R, S54K, T55S
VL: B1 VL with R28K, N52D
B22: Variant C49 (antibody, V domains shown)
VH: B1 VH with I48M, N52S, S54N, T55K
VL: B1 VL with R28K, N52D
B23: Variant C50 (antibody, V domains shown)
VH: B1 VH with I48M, N52S, S54N, T55S
VL: B1 VL with R28K, N52D
B24: Variant C51 (antibody, V domains shown)
VH: B1 VH with I48M, N52K, S54N, T55K
VL: B1 VL with R28K, N52D
B25: Variant C52 (antibody, V domains shown)
VH: B1 VH with I48M, N52K, S54N, T55S
VL: B1 VL with R28K, N52D
B26: Variant C53 (antibody, V domains shown)
VH: B1 VH with I48M, N52S, S54R, T55K, Y57R
VL: B1 VL with R28K, N52D
B27: Variant C54 (antibody, V domains shown)
VH: B1 VH with I48M, N52S, S54R, T55S, Y57R
VL: B1 VL with R28K, N52D
B28: Variant C55 (antibody, V domains shown)
VH: B1 VH with I48M, N52S, S54K, T55K, Y57R
VL: B1 VL with R28K, N52D
B29: Variant C57 (antibody, V domains shown)
VH: B1 VH with I48M, N52K, S54K, T55S, Y57R
VL: B1 VL with R28K, N52D
B30: Variant C59 (antibody, V domains shown)
VH: B1 VH with I48M, N52R, S54K, T55S, Y57R
VL: B1 VL with R28K, N52D
B31: Variant C60 (antibody, V domains shown)
VH: B1 VH with I48M, N52S, S54N, T55K, Y57R
VL: B1 VL with R28K, N52D
B32: Variant C61 (antibody, V domains shown)
VH: B1 VH with I48M, N52S, S54N, T55S, Y57R
VL: B1 VL with R28K, N52D
B33: Variant C62 (antibody, V domains shown)
VH: B1 VH with I48M, N52K, S54N, T55K, Y57R
VL: B1 VL with R28K, N52D
B34: Variant C63 (antibody, V domains shown)
VH: B1 VH with I48M, N52K, S54N, T55S, Y57R
VL: B1 VL with R28K, N52D

Legend:
CD25 on Kit225/K6 cells = target: T1, CD25 on Kit225/K6 cells (human, UniProt P01589 22-272); assay: cell-based or functional assay
T1 sequence (looked up): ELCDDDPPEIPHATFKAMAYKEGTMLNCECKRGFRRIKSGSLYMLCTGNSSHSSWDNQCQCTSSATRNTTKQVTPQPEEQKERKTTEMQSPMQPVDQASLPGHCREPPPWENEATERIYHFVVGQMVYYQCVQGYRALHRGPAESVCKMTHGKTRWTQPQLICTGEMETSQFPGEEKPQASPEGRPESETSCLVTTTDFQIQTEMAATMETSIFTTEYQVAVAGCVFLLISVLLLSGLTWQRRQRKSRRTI

[1] = target: T2, human CD25 (recombinant soluble) (human, UniProt P01589 22-240); assay: SPR (BIAcore), antibody captured, CD25 injected
T2 construct: extracellular domain; bought protein; also called IL2-Rα; recombinant human IL2-Rα
T2 sequence (looked up): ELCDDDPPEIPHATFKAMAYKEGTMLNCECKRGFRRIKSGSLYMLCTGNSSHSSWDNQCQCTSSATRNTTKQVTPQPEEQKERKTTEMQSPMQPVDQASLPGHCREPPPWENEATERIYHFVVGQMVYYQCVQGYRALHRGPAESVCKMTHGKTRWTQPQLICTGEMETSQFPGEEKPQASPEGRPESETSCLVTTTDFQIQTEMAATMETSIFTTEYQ

human CD25 = target: T3, human CD25 (human, UniProt P01589 22-213, limits assumed); assay: SPR (BIAcore)
T3 construct: Recombinant soluble human CD25, coated on plates (ELISA) or injected over captured antibody (BIAcore); also called hCD25; IL2-R alpha
T3 sequence (looked up): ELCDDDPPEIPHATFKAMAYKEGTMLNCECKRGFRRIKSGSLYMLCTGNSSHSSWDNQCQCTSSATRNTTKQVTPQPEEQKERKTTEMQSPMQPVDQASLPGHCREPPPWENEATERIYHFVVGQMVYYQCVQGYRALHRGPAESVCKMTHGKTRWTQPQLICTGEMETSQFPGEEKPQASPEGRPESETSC

cynomolgous monkey CD25 [2] = target: T4, cynomolgous monkey CD25 (cynomolgous monkey); assay: SPR (BIAcore), cynomolgous CD25
T4 construct: also called cmCD25; cm

cynomolgous monkey CD25 [3] = target: T4, cynomolgous monkey CD25; assay: SPR (BIAcore), cynomolgous CD25; remark: listed apart in the source
CD25 (recombinant) = target: T5, CD25 (recombinant) (human, UniProt P01589 22-213, limits assumed); assay: SPR (BIAcore)
T5 construct: bought protein; also called IL2-R alpha; IL2-Rα
T5 sequence (looked up): T3 sequence (looked up)

cynomolgous monkey CD25 [4] = target: T4, cynomolgous monkey CD25; assay: SPR (BIAcore), cynomolgous CD25; remark: listed apart in the source

Row | Binder | Kd (cynomolgous monkey CD25 [3]) [nM] | Kd (cynomolgous monkey CD25 [4]) [nM] | other results
1 | B1 |  |  | Functional improvement (inhibition of proliferation of Kit225/K6 cells; IC50 normalized to wild type daclizumab) (CD25 on Kit225/K6 cells): 1.5 fold
2 | B2 |  |  | Functional improvement (inhibition of proliferation of Kit225/K6 cells; IC50 normalized to wild type daclizumab) (CD25 on Kit225/K6 cells): 2 fold
3 | B3 |  |  | Functional improvement (inhibition of proliferation of Kit225/K6 cells; IC50 normalized to wild type daclizumab) (CD25 on Kit225/K6 cells): 2.4 fold; Affinity improvement (KD normalized to wild type daclizumab) [1]: 23 fold; Kd [1]: 0.022 nM; koff [1]: 3.34e-05 s⁻¹; kon [1]: 1.54e+06 M⁻¹ s⁻¹
4 | B4 |  |  | Functional improvement (inhibition of proliferation of Kit225/K6 cells; IC50 normalized to wild type daclizumab) (CD25 on Kit225/K6 cells): 0.7 fold
5 | B5 |  |  | Functional improvement (inhibition of proliferation of Kit225/K6 cells; IC50 normalized to wild type daclizumab) (CD25 on Kit225/K6 cells): 3.5 fold; Affinity improvement (KD normalized to wild type daclizumab) [1]: 31 fold; Kd [1]: 0.016 nM; koff [1]: 2.18e-05 s⁻¹; kon [1]: 1.38e+06 M⁻¹ s⁻¹
6 | B6 |  |  | Functional improvement (inhibition of proliferation of Kit225/K6 cells; IC50 normalized to wild type daclizumab) (CD25 on Kit225/K6 cells): 0.8 fold
7 | B7 |  |  | Functional improvement (inhibition of proliferation of Kit225/K6 cells; IC50 normalized to wild type daclizumab) (CD25 on Kit225/K6 cells): 1.2 fold; Affinity improvement (KD normalized to wild type daclizumab) [1]: 17 fold; Kd [1]: 0.029 nM; koff [1]: 3.29e-05 s⁻¹; kon [1]: 1.24e+06 M⁻¹ s⁻¹
8 | B8 |  |  | Functional improvement (inhibition of proliferation of Kit225/K6 cells; IC50 normalized to wild type daclizumab) (CD25 on Kit225/K6 cells): 0.4 fold
9 | B9 |  |  | Kd (human CD25): 0.029 nM
10 | B10 |  |  | Kd (human CD25): 0.022 nM
11 | B11 |  |  | Kd (human CD25): 0.016 nM
12 | B12 | 0.263 |  | Kd (cynomolgous monkey CD25 [2]): 0.263 nM
13 | B13 |  |  | Kd (cynomolgous monkey CD25 [2]): 0.098 nM
14 | B14 |  |  | Kd (CD25 (recombinant)): 0.478 nM
15 | B15 |  |  | Kd (human CD25): 0.121 nM
16 | B16 | 0.031 |  | Kd (cynomolgous monkey CD25 [2]): 0.031 nM
17 | B17 | 0.042 | 0.042 | 

Row | Binder | Kd (cynomolgous monkey CD25 [3]) [nM] | Kd (cynomolgous monkey CD25 [4]) [nM] | other results
18 | B18 | 0.055 | 0.055 | 
19 | B19 | 0.011 | 0.011 | 
20 | B20 | 0.1 | 0.1 | 
21 | B21 | 0.053 | 0.053 | 
22 | B22 | 0.0079 | 0.0079 | 
23 | B23 | 0.026 | 0.026 | 
24 | B24 | 0.093 | 0.093 | 
25 | B25 | 0.075 | 0.075 | 
26 | B26 | < 0.0024 | < 0.0024 | 
27 | B27 | 0.055 | 0.055 | 
28 | B28 | 0.049 | 0.049 | 
29 | B29 | 0.078 | 0.078 | 
30 | B30 | 0.05 | 0.05 | 
31 | B31 | < 0.0023 | < 0.0023 | 
32 | B32 | 0.055 | 0.055 | 
33 | B33 | 0.1 | 0.1 | 
34 | B34 | 0.063 | 0.063 | 
